According to US20230272011A1 (AVACTA LIFE SCIENCES, published 2023):
Each block holds one binder with its values, some of them ahead of it.

What was measured:
human serum albumin [1] = biological target: T1, human serum albumin (human, UniProt P02768 25-609); test: binding ELISA on coated HSA, pH 7.4
T1 construct: mature; Bought protein; biotinylated in the Octet and HTRF assays; also called HSA; HuSA
Experimental: After saturation with 5% PBS Casein pH 7.5, plates were washed and a dilution of AFFIMER® polypeptides or controls were incubated for 90 minutes. Plates were then washed, and a biotinylated polyclonal antibody anti-cystatin A (R&D Systems) was added for 1 hour. Plates were washed and AFFIMER® polypeptides were detected using streptavidin-HRP. After a last washing step, TMB was added for the development of the experiment and the plates were read at 450 nm.

[2] = biological target: T2, human PD-L1-Fc (R&D Systems) chimeric protein (human, UniProt Q9NZQ7 19-239); test: binding ELISA on coated human PD-L1-Fc (table on the sheet is headed 'IC50 (nM)'; the text calls these values EC50)
T2 construct: Bought reagent; also called rhPD-L1-Fc; huPD-L1; Fc part of the bought chimera not given, not described
Experimental: Briefly, human PD-L1-Fc (R&D Systems) chimeric protein was coated on 96 well plates at […] in carbonate buffer. After saturation with 5% casein/PBS buffer, the plates were washed and a dilution of AFFIMER® polypeptides or controls were incubated for 90 minutes. Plates were then washed and a biotinylated polyclonal antibody anti-cystatin A (R&D Systems) was added for 1 hour. Plates were washed and AFFIMER® polypeptides were detected using streptavidin-HRP. After a last washing step, TMB was added for the development of the experiment and plates were read at 450 nm.

human serum albumin [3] = biological target: T1, human serum albumin; test: SPR (Biacore), immobilised HSA, Affimer analyte
Experimental: Affinities for mouse, human, and cynomolgus serum were also measured at pH 7.4 for four (4) AFFIMER® binders using surface plasmon resonance (SPR) (FIG. 5, Table 5). […] A concentration titration of AFFIMER® monomers was run as analyte at a flow rate of 30 μl/min or 60 μl/min. Fc2-1, Fc3-1 and Fc4-1 kinetic data was blank subtracted and fit to a 1:1 Langmuir binding model (BIAcore Evalution software; GE) to calculate KD values. […]

[4] = biological target: human PD-L1 (PD-1/PD-L1 blockade Bioassay, Promega) (human, UniProt Q9NZQ7 19-290, limits assumed); test: cell-based or functional assay
[5] = biological target: T2, human PD-L1-Fc (R&D Systems) chimeric …; test: SPR (Biacore), immobilised rhPD-L1-Fc, Affimer analyte
Experimental: ILF dimer production from E. coli was performed as described in Example 3. Briefly, protein was purified using three stages: affinity capture, IEX, and preparative SEC. […] To analyze PD-L1-Fc binding kinetics, a Biacore T200 kinetic analysis was performed using running buffer HBS-EP+ and series S sensor CM5 (GE Healthcare) chip Fc2 immobilized with PD-L1-Fc (R&D Systems) in 10 mM sodium acetate pH 4.0 using amine coupling reagents (GE Healthcare). The concentration titration of ILF AFFIMER® polypeptides was run as analyte at a flow rate of 30 μl/min. […] with 3 mM NaOH (GE healthcare) for 20 seconds at 20 μl/min flow rate. The Fc2-1 data blank was subtracted and fit to a 1:1 Langmuir binding model (Biacore evaluation software; GE) to calculate an apparent KD value.
ILF production in E. coli was performed as described in Example 3 using protein purified using affinity capture, IEX, and preparative SEC. Protein purity was assessed using SDS-PAGE and SEC-HPLC.

[6] = biological target: T2, human PD-L1-Fc (R&D Systems) chimeric …; test: Biacore single cycle kinetics on human PD-L1 Fc

Chain of human PD-L1 (PD-1/PD-L1 blockade Bioassay, Promega) (Q9NZQ7 19-290 limits assumed): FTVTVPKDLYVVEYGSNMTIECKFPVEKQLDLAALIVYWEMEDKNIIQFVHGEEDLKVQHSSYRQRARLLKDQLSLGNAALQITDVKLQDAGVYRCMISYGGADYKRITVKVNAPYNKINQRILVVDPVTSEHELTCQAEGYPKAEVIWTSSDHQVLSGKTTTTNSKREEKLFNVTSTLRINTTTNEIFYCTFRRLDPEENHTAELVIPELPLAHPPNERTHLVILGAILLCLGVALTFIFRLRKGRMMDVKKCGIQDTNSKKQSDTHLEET
T2 sequence (Q9NZQ7 19-239, change not shown): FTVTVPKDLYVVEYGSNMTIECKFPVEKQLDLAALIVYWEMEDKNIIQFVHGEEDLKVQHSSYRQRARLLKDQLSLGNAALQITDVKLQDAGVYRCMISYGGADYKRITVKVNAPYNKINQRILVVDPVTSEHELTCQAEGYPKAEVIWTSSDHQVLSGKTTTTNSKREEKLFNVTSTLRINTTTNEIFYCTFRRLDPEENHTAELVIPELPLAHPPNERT

EC50 (human serum albumin [1]): 0.039 nM
EC50 [2]: 0.064 nM
Kd (human serum albumin [3]): 5.2 nM
koff (human serum albumin [3]): 0.0029 s⁻¹
kon (human serum albumin [3]): 557000 M⁻¹ s⁻¹
IC50 as headed on the sheet (EC50); PD-1/PD-L1 blockade Bioassay (Promega), fold change relative to assay buffer [4]: 434 nM
Kd [5]: 0.704 nM
koff [5]: 0.000607 s⁻¹
kon [5]: 863000 M⁻¹ s⁻¹
B1: AVA04-251 XT15 (designed binder)
chain: MIPRGLSEAKPATPEIQEIVDKVKPQLEEKTNETYGKLEAVQYKTQVLAREGRQDWVLSTNYYIKVRAGDNKYMHLKVFNGPWVPFPHQQLADRVLTGYQVDKNKDDELTGFAEAAAKEAAAKEAAAKEAAAKEAAAKEAAAKMIPRGLSEAKPATPEIQEIVDKVKPQLEEKTNETYGKLEAVQYKTQVLANFFQRRWPGSTNYYIKVRAGDNKYMHLKVFNGPWKFRNTDRGADRVLTGYQVDKNKDDELTGFAEAAAKEAAAKEAAAKEAAAKEAAAKEAAAKMIPRGLSEAKPATPEIQEIVDKVKPQLEEKTNETYGKLEAVQYKTQVLAREGRQDWVLSTNYYIKVRAGDNKYMHLKVFNGPWVPFPHQQLADRVLTGYQVDKNKDDELTGFHHHHHH

EC50 [2]: 0.03 nM
IC50 as headed on the sheet (EC50); PD-1/PD-L1 blockade Bioassay (Promega), fold change relative to assay buffer [4]: 893 nM
Kd [5]: 1.71 nM
koff [5]: 0.00129 s⁻¹
kon [5]: 752000 M⁻¹ s⁻¹
B2: AVA04-251 BH (designed binder)
chain: MIPRGLSEAKPATPEIQEIVDKVKPQLEEKTNETYGKLEAVQYKTQVLAREGRQDWVLSTNYYIKVRAGDNKYMHLKVFNGPWVPFPHQQLADRVLTGYQVDKNKDDELTGFAEAAAKEAAAKEAAAKEAAAKEAAAKEAAAKMIPRGLSEAKPATPEIQEIVDKVKPQLEEKTNETYGKLEAVQYKTQVLAREGRQDWVLSTNYYIKVRAGDNKYMHLKVFNGPWVPFPHQQLADRVLTGYQVDKNKDDELTGFHHHHHH
notes: also called anti-PD-L1 parental ILF dimer molecule

EC50 (human serum albumin [1]): 0.062 nM
EC50 [2]: 0.033 nM
Kd (human serum albumin [3]): 8.75 nM
koff (human serum albumin [3]): 0.00282 s⁻¹
kon (human serum albumin [3]): 322000 M⁻¹ s⁻¹
IC50 as headed on the sheet (EC50); PD-1/PD-L1 blockade Bioassay (Promega), fold change relative to assay buffer [4]: 176 nM
Kd [5]: 0.504 nM
koff [5]: 0.00042 s⁻¹
kon [5]: 834000 M⁻¹ s⁻¹
Kd [6]: 0.307 nM
koff [6]: 0.000277 s⁻¹
kon [6]: 903000 M⁻¹ s⁻¹
B3: AVA04-251 XT14 (designed binder)
chain: MIPRGLSEAKPATPEIQEIVDKVKPQLEEKTNETYGKLEAVQYKTQVLAREGRQDWVLSTNYYIKVRAGDNKYMHLKVFNGPWVPFPHQQLADRVLTGYQVDKNKDDELTGFAEAAAKEAAAKEAAAKEAAAKEAAAKEAAAKMIPRGLSEAKPATPEIQEIVDKVKPQLEEKTNETYGKLEAVQYKTQVLAREGRQDWVLSTNYYIKVRAGDNKYMHLKVFNGPWVPFPHQQLADRVLTGYQVDKNKDDELTGFAEAAAKEAAAKEAAAKEAAAKEAAAKEAAAKMIPRGLSEAKPATPEIQEIVDKVKPQLEEKTNETYGKLEAVQYKTQVLANFFQRRWPGSTNYYIKVRAGDNKYMHLKVFNGPWKFRNTDRGADRVLTGYQVDKNKDDELTGFHHHHHH
